The DeepSol protein solubility set

Assay: soluble on expression in E. coli; label from the status in PepcDB or PDB records

Sequence | soluble on expression in E. coli
MSLRIGIVGVGFSEFRIHEEPFYNVAFLAAKRALEDAGIERGEVDSFILGGYDNLGVGRTISNMYTAPAAGAYLRHEIRVSDDALFALPLAFMKVKSGSEITMLLAFGHSSETPIELVELQSLDPFFHRPFNLSLPVFFAMQSYAYRERYGVKEEKIAEVVVRMREKGAKNPRAYIREKVSVEDVLSSEVVSSPLRRLEMAEWCDGCVAFILAEETVARRLSDSPVWVSGLGWSAENYYFDRSLHDLPFVAKSAEMAFKMSGKERKDVEALEISDLTADYYCMILEALGFAETGRGWEFNGDVNFSGGALCTNAYGSTGAFLLASIVERIRKGEIECGMAQSMSGYAQKSCVAILEGEGHHHHHH | soluble
MLIRYRKNYEKIAMGLLSFMPTEKDLKRLQQTMKQYETNNDWQLFLWKEGDDIVGIIGVLLRAPDVVEIQHISVNPSHRHQGIGKQMVKALKEVYPGRRLCANEWTASFFDKCHACNE | not soluble
GKAVIAIHGGAGAISRAQMSLQQELRYIEALSAIVETGQKMLEAGESALDVVTEAVRLLEECPLFNAGIGAVFTRDETHELDACVMDGNTLKAGAVAGVSHLRNPVLAARLVMEQSPHVMMIGEGAENFAFARGMERVSPEIFSTSLRYEQLLAARKEGATVLDHSGAPLDEKQKMGAVGAVALDLDGNLAAATSTGGMTNKLPGRVGDSPLVGAGCYANNASVAVSCTGTGEVFIRALAAYDIAALMDYGGLSLAEACERVVMEKLPALGGSGGLIAIDHEGNVALPFNTEGMYRAWGYAGDTPTTGIYREKGDTVATQ | soluble
MGSDKIHHHHHHMNDLPLADLDAFATIARLRNFRAAGKLRGVSASSLSEAMRRLEARVGVRLLNRTTRSVTLTDAGARLLERLSPTLADIELALDDINQFRERPFGRLRLNVPGIVARCVLPPVVTGFLAAYPDILLEVTVNDALIDVLAEGCDAGIRYEEALHQDMIAVPIGPRRQRYVCVAAPSYLEQYGRPEHPRDLIHHRSILHRFNSGRVNEWHFEREGEAINVSPPPRLIAETVDLELAAVRAGLGMMGTFEDFVIEDLNAGRLERVLTDWEDEFSGPFLYYHSRRHMPVPLRVFVDYIRQHGDPG | not soluble
MSDSHHKPVWDRTHHAKMATGIGDPQCFKGMAGKSKFNVGDRVRIKDLPDLFYTRTMTYTRGATGTIVRLVYESPAAEDEAFGNEENVEWFYSIVFAQKDLWPEYSDTFANDTLETEIPERYLEKA | soluble
MLQDHKITFLGAGSMAESIIAGLLSKKLLLPSQVIATNLCDEAKLTKLEDRYGICTTQNRQEAVRQGTIIFLAMKPKNIEEAIEEIRGEITEKQLFISVLAGTTTSYIETLLAHEVPVVRTMPNTSAKVGASATGLCGGRYANASHVKLATLIFTAIGTVTEVTEDKLDAVTGLAGSGPAYFYYMVEAMERAAVQSGLTESEAKAFISQTLIGTGKRLEQTSKTAEELYKEVMSPGGTTEAGLRVLEQQQMQQAIEEAITAAINRSRELGSTPSLEIKKLEHHHHHH | soluble
SVPIVSAWEKGMEAARALMDKYHVDNDLKANFKLLPDQVEALAAVCKTWLNEEHRGLQLTFTSNKTFVTMMGRFLQAYLQSFAEVTYKHHEPTGCALWLHRCAEIEGELKCLHGSIMINKEHVIEMDVTSENGQRALKEQSSKAKIVKNRWGRNVVQISNTDARCCVHDAACPANQFSGKSCGMFFSEGAKAQVAFKQIKAFMQALYPNAQTGHGHLLMPLRCECNSKPGHAPFLGRQLPKLTPFALSNAEDLDADLISDKSVLASVHHPALIVFQCCNPVYRNSRAQGGGPNCDFKISAPDLLNALVMVRSLWSENFTELPRMVVPEFKWSTKHQYRNVSLPVAHSDARQNPFDF | soluble
LGQTTERYKSVIESMIEGIIIIDLEGKIIDHNKAATQIIGYEDLVLIGNDFSLGPGEAIREDETKFPFEEFPGIKTLRTGMPYKNVILGWIIPGKDTIWLSINSEPVKNENGEQVAVVCSYSDVT | not soluble
RTCRIHEISCGAHSTQCIPVSWRCDGENDCDSGEDEENCGN | soluble
MSLSEDLFDVEVRNFEEGDKVTGTVTSVEDKQVYVGIPGSKLDGVVPISELSNIHVETASDVVSVGDTLDLIVTKVEDDILVLSKRKVDAEKASDDIKAKFESGEVFEAVVSDVVKGGLVVDLGVRAFVPASLVEDHFVEDFADYKGTTLTFKVVEFEPENNRVILSHRAVVETEKASQKQALLSEIKEGDVIEGTVQRLANFGAFVDIGGVDGLVHISQISYKHIATPQEALEEGQKVTVKVIGIDPENERISLSIKATLPGPWDGIAEKAPVGSVLEGKVVRLVTFGAFVEIFPGVEGLVHISQISHEHIGTPQEVLSEGQTVEVKVLEVNEADKRLSLSIKELKDAPVEEADYELPEENTGFQMSDLIGDKLKGLQNDDKEGHHHHHH | soluble
KVILKEDAEMLDEVVVTGYGMSQKRSLMTNSISKLDDKVLQNAAMSNAAQSLQGTVSGLRVTNTSGKPGSSPNIVLRGGASINKNLEGPLVVVDGLVRSMDDINPSDIESIQVLKDAASTAIYGARANNGVILVTTKKGVEGR | not soluble
GSHMLITASSSKEYLPDLLLFWQNYEYWITNIGLYKTKQRDLTRTPANLDTDTEECMFWMNYLQKDQSFQLMNFAMENLGALYFGSIGDISELYLRVEQYWDRRADKNHSVDGKYWDALIWSVFTMCIYYMPVEKLAEIFSVYPLHEYLGSNKRLNWEDGMQLVMCQNFARCSLFQLKQCDFMAHPDIRLVQAYLILATTTFPYDEPLLANSLLTQCIHTFKNFHVDDFRPLLNDDPVESIAKVTLGRIFYRLCGCDYLQSGPRKPIALHTEVSSLLQHAAYLQDLPNVDVYREENSTEVLYWKIISLDRDLDQYLNKSSKPPLKTLDAIRRELDIFQYKVDSLEEDFRSNNSRFQKFIALFQISTVSWKLFKMYLIYYDTADSLLKVIHYSKVIISLIVNNFHAKSEFFNRHPMVMQTITRVVSFISFYQIFVESAAVKQLLVDLTELTANLPTIFGSKLDKLVYLTERLSKLKLLWDKVQLLDSGDSFYHPVFKILQNDIKIIELKNDEMFSLIKGLGSLVPLNKLRQESLLEEEDENNTEPSDFRTIVEEFQSEYNISDILS | soluble
MGSDKIHHHHHHMVEMNFKVDAFEGPLDLLLHLIGQLEVDIYDIPMAEITDQYMEFVHTMQEMELDVASEYLVMAATLLAIKSKMLLPKQELEIDYDTLEEEEDPRDALVEKLMEYKRFKEAAKELKEKEAERSFYFSKPPMDLAEYDDGTKVAELDVSLNDMLSAFNKMLRRKKLNKPLHTRITTQEISIDQRMDSVLEKLNLQVNHRLRFDELFEEQTKEQLVVTFLALLELMKRKLVEVEQAESFADLYVQGKGEEIS | not soluble
MAHHHHHHMLRLCLALRSASVQRKPHLFRIDLTSKHTPGHLYLADRAVKSTAADPCFVCLDNAMTCQTVDSNAAVVLRSCMTKGRELFQYGRMRFQGMSAALVFRHNHLVFQGIGDASVQALEMSLQHKDVFALLGGISPHENIPEWARAVEKAIAEGDVEYVAEEMLLQLRCPTEGCTSVVAKISKFSAGLPEPPNYSHAM | not soluble
KKEKSPKGKSSISPQARAFLEEVFRRKQSLNSKEKEEVAKKCGITPLQVRVWFINKRMRSK | soluble
TAVSLEQLLIAREQRVALQQQCLHEYQQTLLSLTLTAVGPVKKNALLDYVFAKALANITACFNKLSVTATAQFIRPLQTGHEALFVLPIDAKILKRAMIELENSSPLARLWDIDVISQEGHYSRGEFGFAERTCLMCAESAKICARSRRHSIDDLLSEIHTRAQQ | not soluble
MSLAHKFDPSKIKKLDDPSRLELFDPEKVLKEFGLKEGMTVLDVGTGAGFYLPYLSKMVGEKGKVYAIDVQEEMVNYAWEKVNKLGLKNVEVLKSEENKIPLPDNTVDFIFMAFTFHELSEPLKFLEELKRVAKPFAYLAIIDWKKEERDKGPPPEEVYSEWEVGLILEDAGIRVGRVVEVGKYCFGVYAMIVKQEEENPLMNVPFKIPPGEGHHHHHH | soluble
MVEYVNQAHEDITGIARDKSIGTNLRDLTFFRQHNALAEQTLAKIFRGDQAKGEVQFSRTDGSRYWLKYIVSQFITDRGNHYALVSGEENSDEHNYKAELEHHHHHH | not soluble
MKLLHTADLHMDRSFEGLTGIPTALAKRLREANQQLLMNIVTVAIREAVDLVIFAGDTFHQSQTSISMQAQLMAALEQLKQAEIPVILTFGNHDYYKKDRYWFSFPDNVFLFEKEMVETLYFETKAGEQVAVSGFSYEHPWIDENKALEFPIKQAESDIHIGIYHGDTSRKAQQNYAPFTWKDLKATGYNYWALGHIHQPQIVSEQPLIVYPGTPQGHTKKEQSLQGVAVVTLSQNQATVQFEKVAEIDWTNEEVSLAQCRDTQSVLSYLETSLLTKWQAHQQQQLMALTLKETQHLDVTVVQAIVNGELLSYLQQQLLQKTQGDFFVYRLILQAEEPTKEPIYLAASPNLLTALEKTYLDPVIFEDTTKELLRYPEFAGIFSMDEQWRLESLRLAHEQINEDFTIQEDPL | not soluble
SGSELIGRLAPRLGLAEPDMLRKAEEYLRLSRVKCVGLSARTTETSSAVMCLDLAASWMKCPLDRAYLIKLSGLNKETYQSCLKSFECLLGLNSNIGIRDLAVQFSCIEAVNMASKILKSYESSLPQTQQVDLDLSRPLFTSAALLSACKILKLKVDKNKMVATSGVKKAIFDRLCKQLEKIGQQVDREPGDVATPPRKRKKIVVEAPAKEMEKVEEMPHKPQKDEDLTQDYEEWKRKILENAASAQKATAE | soluble
MPSRKFADGEVVRGRWPGSSLYYEVEILSHDSTSQLYTVKYKDGTELELKENDIK | soluble
MNETKVLIEKITEGIQEKKGKNIVIADLTNIDDTICKYFVICQGNSPSQVIAIVDSIKEFTRKGAGTKPSAIDGQRNAEWVAMDFSDVLVHVFLPEARNFYNLEHLWADAKLTTIPDID | soluble
GPGSMTDLRGVLPSKVISTPSGFVECSTHNVRRKAECCEMKAVLNADMEVIDYICVCKHPFTCKSASERQSNGLAAASNARRNAPDGERSGTAPLVIDASSTSMTAQSQHHHHGGQPSAAGAADKEAGVSTLFAVSFYDASRSTPGPSASATAAAVSPKPSAKDGEDREDEKGKDTRANAMRISDSDSDTDDGDSLDNSPSFTAGATPATAATAASFPAAPRERSRYYDSLQNASTGGHAPPAKVCWGCGMTGHEKPACPNALCRTCHQKRGPYGSPHRCTPVVTPSPLIVYPTPSEWRAATQKTAAAAGEPNGMAAVRCVACNEYGHFDCSTVVLPSSYALVASSSPGPAAVPHTLVPTCCFCGVRGHTVFDCQQREHVNPDYFERRNQLFADSVRRGSGITAAGAPFSNSGSSSGYGHPSQQQRQQRFYGSPTGGAPLSSSSFTRYGNGRGGGGSGQRRERDWCDNREQRVGGSQYSNSRREGSAYNNDSYGGDRDHQRRRYESPSFSRAGGGPAPSSSLLMHGRDRCQEGGQRHHEERSRDSYGGSHQRYSEGEHGGAGSRGHGQRSHYSQQSQHSHRHGSSRRGGRLGDSGYYSDDNLF | not soluble
MPTFTLRPYTEADEDPAIALWLRTWQLAYPAIDFTKRVDWWRERWRTELVPQAAIIVAEQDSALIGFVTIDAVGYLDQLVVEPEHWGWGVAEALVDEAKQRSPTEVTLKVNADNYRAIKFYRRNGFAVTSEELNSSGRPVLNMLWRPA | not soluble
MSLTSVVFLNPGNSTETFWVSYSQFMQAAARDLGLDLRILYAERDPQNTLQQARELFQGRDKPDYLMLVNEQYVAPQILRLSQGSGIKLFIVNSPLTLDQRELIGQSRQNYSDWIGSMVGDDEEAGYRMLKELLHKLGPVPAGHGIELLAFSGLKVTPAAQLRERGLRRALAEHPQVHLRQLVYGEWNRERAYRQAQQLLKRYPKTQLVWSANDEMALGAMQAARELGRKPGTDLLFSGVNSSPEALQALIDGKLSVLEAGHFTLGGWALVALHDDALGLDARRLGGPDWQLSLFQALTPAQARQLLRLGDQVGTRVDFRGLSAQGKPDSYRYPFGLQLLLREGHHHHHH | soluble
